Results from the nanobody polyreactivity screen of Harvey et al. (2022).

Test: yeast display, Sf9 membrane polyspecificity reagent, FACS + sequencing; frameworks hold sequencing errors
Procedure, shortened: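 In a synthetic yeast display library (Saccharomyces cerevisiae BJ5465), nanobody expression was induced with galactose for 36–48 hours. FACS gates were set low and high (top ~1%) using anti-HA fluorescence for expression and streptavidin fluorescence for binding of the Sf9 membrane reagent. Each polyreactivity label is drawn from the gate of origin.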

Sequence	polyreactivity (PSR sort gate)
QVQLVESGGGLVQAGGSLRLSCAASGIIFYHNALGWYRQAPGKERELVASITEIGGSTYYADSVKGRFTISRDNEKNTVYLQMNSLKPEDTAVYYCARDWRNKWFGYWGLGTQVTVSS	low polyreactivity
QVQLVESGGGLVQAGGSLRLSCAASGIIFYHNAMGWYRQAPGKERELVASITEIGGSTYYADSVKGRFTISRDNAKNTVYILMNSLKPEDTAVYYCAAGTLTSFSRYDYWGQGTQVTVSS	low polyreactivity
QVQLVESGGGLVQAGGSLRLSCAASGIIFYINAMGWYRQAPGKERELFADISSGDRTYYADSVKGRFTISRDNAKNTVYLQMNSLKPEDTAVYYCAAESYSGFVAGHTSLDDYWGQGTQVTVSS	low polyreactivity
QVQLVESGGGLVQAGGSLRLSCAASGIIFYIYAMGWYRQAPGKETELVASISFSGTSTYYADSVKGRFTISRDNAKNTVYLQLHSLKPEDTAVYYCNAQTNRPWGWPIGYDYWGQGTQVTVSS	low polyreactivity
QVQLVESGGGLVQAGGSLRLSCAASGIIFYKFAMGWYRQAPGKERELVASISRRGGNTYYADSVKGRCTISRDNAKNTVYLQMNSLKPEDTAVYDSAAPKRSNEPYDYWGQGTQVTVSS	high polyreactivity
QVQLVESGGGLVQAGGSLRLSCAASGIIFYKNDMGWYRQAPGKERELVAAINRSGGRTYYADSVKGRFTISRDNAKNTVYLQMNSLKPEDTAVYYCATDKVSHRRYDYWGQGTLVTVSS	high polyreactivity
QVQLVESGGGLVQAGGSLRLSCAASGIIFYKYAMGWYRQAPGKERELVAAITSGGGRTYYADSVKGRFTISRDNAKNTVYLQMNSLKPEDTAVYYCNADTYSAGDYWGQGTQVTVSS	high polyreactivity
QVQLVESGGGLVQAGGSLRLSCAASGIIFYPYAMGWYIQAPGKERELVAGISSSGGSTYYADSVKGRFTISRDNAKNTVYLQMNSLKPEDTAVYYCAVGGERGARIGSNHRGSRYDYWGQGTQVTVSS	high polyreactivity
QVQLVESGGGLVQAGGSLRLSCAASGIIFYPYAMGWYRQAPGKERELVAAISIGGGSTYYADSVKGRFTISRDYAKNTVYLQMNSLKPEDTAVYYFAAGTPYGILGFYYWGQGTQVTVSS	low polyreactivity
QVQLVESGGGLVQAGGSLRLSCAASGIIFYPYAMGWYRQAPGKERELVADITSGGGTNYADSVKGRFTISRDNAKNTVYLHMNSLKREDTAVYYWAAEVRGYHWGTYYEFYYWGQGTQVTVSS	low polyreactivity
QVQLVESGGGLVQAGGSLRLSCAASGIIFYRNTMGWYRQAPGKERELVAAIRRGGNTYYADSVKGRFTISRDNAKNTVYLQMNSLKPEDTAVYYCAAEDYNGRQYYHKMDYWGQGTQVTVSS	high polyreactivity
QVQLVESGGGLVQAGGSLRLSCAASGIIFYRYAMGWYRQAPAKERELVAAISRSGGSTYYADSVKGRFTISRDNAKNTVYLQMNSLKPEDTAVYYCAARVRTNYYGSYYYWGQGTQVTVSS	high polyreactivity
QVQLVESGGGLVQAGGSLRLSCAASGIIFYRYAMGWYRQAPGKERELVAVISRSGCSTYYADSVKGRFTISRDNAKNTVYLQMNSLKPEDTAVYYSAAGRRYDGTRHDYWGQGTQVTVSS	high polyreactivity
QVQLVESGGGLVQAGGSLRLSCAASGIIFYSYAMGWYRQAPGKERELVAAISNNGGSTYADSVKGRFTISRDNAKNTVYLQMNSLKPEDTAVYYCAADPTGGVGFDGYYWGQGTQVTVSS	low polyreactivity
QVQLVESGGGLVQAGGSLRLSCAASGIIFYWNAMGWYRHAPGKERELVAGITRGGSTYYADSVKGRFTISRDNAKNTVYLQMNSLKPEDTAVYYCAKRHASRRVSYSRYDYWGQGTQVTVSS	high polyreactivity
QVQLVESGGGLVQAGGSLRLSCAASGIIFYWYAMGRYRQAPGKERELVATINSTGGSTNYADSVKVRFTISRDNAKNTVYLQMNSLKPEDTAVYYCAKDWNDDQHSWDTPFDYWGQGTQVTVSS	low polyreactivity

Sequence	polyreactivity (PSR sort gate)
QVQLVESGGGLVQAGGSLRLSCAASGIIFYYYAMGWYRHAPGKERELVAAISTSGTRTFYADSVKGRFTISRDNAKNTVYLQMNCLKPEDTAVYYCAARIYKPQRSSSLYRTSGYWGQGTQVTVSS	high polyreactivity
QVQLVESGGGLVQAGGSLRLSCAASGIIFYYYAMGWYRQAPGKERELVAAISWSGGSTYYADSVKGRFTISRDNAKNTVYLQMNSLKPDDTAVYYCAAAFSPGWWSRHTYDYDYWGQGTQVTVSS	high polyreactivity
QVQLVESGGGLVQAGGSLRLSCAASGIIFYYYAMGWYRQAPGKERELVAAISWSGGSTYYADSVKGRFTISRDNAKNTVYLQMNSLKPEDTAVYYCAAAFSPGWWSRHTYDYDYWGQGTQVTVSS	high polyreactivity
QVQLVESGGGLVQAGGSLRLSCAASGIIFYYYVMGCYRQAPGKERELVAAISRSGGRTRYADSVKGRFTISRDNAKNTVYLQMNSLKPEDTAVYYCAAVGSVNYDADFDYWGQGTQVTVSS	high polyreactivity
QVQLVESGGGLVQAGGSLRLSCAASGIIFYYYVMGWDRQAPGKERELVAAISDSGDNTYYADSVKGRFTISRDNAKKTVYLQMNSVKPEDTAVYYCNSQVDYWSNPWIYRKYDYWGQGTQVTVSS	high polyreactivity
QVQLVESGGGLVQAGGSLRLSCAASGIIIITYAMGWYRQAPGKERELVAVISFSGGGTYADSVKGRFTISRDNAKNTVYLQMNSLKPEVTAVYYCAKYWLSALTLEDDYCGQGTQVTVSS	low polyreactivity
QVQLVESGGGLVQAGGSLRLSCAASGIIIQRNAMGWYRQAPGKERELVAAISIGGGSTYADSVKGRFTISRDNAMNTVYLQMNSLKPEDTAVYYCAADYSGASVLMDYWGQGTQVTVSS	low polyreactivity
QVQLVESGGGLVQAGGSLRLSCAASGIIIRYYAMGWYRQAPGKERELVAAISTSGGRTYYADSVKGRFTISRDNAKNPVYLQMNSLKPEDTAVYYCAARPGSWYPSVPSYNYWGQGTQVTVSW	low polyreactivity
QVQLVESGGGLVQAGGSLRLSCAASGIIIRYYGMGWYRQAPGKERELVARIRWTGGSTYYADSVKGRFTISRDNAKNTVYLQMNSLKPEDTAVYYCNADPWWRFDYWGQGTQVTVSS	low polyreactivity
QVQLVESGGGLVQAGGSLRLSCAASGIIITYYTMGWYRQAPGKERELVAAIRWRGGSTYYADSVKGRFTISRDNAKNTVYLQMNSLKPEDTAVYYCNARSAFRSCGRDFLFDYWGQGTQVTGSS	high polyreactivity
QVQLVESGGGLVQAGGSLRLSCAASGIIIYDYAMGWYRHAPGKERELVAAISRSGGSTYYADSVKGRFTISRDNAKYTVYLQMNSLKPDDTAVYYCNADEVVWGYNYWGQGTQVTVSS	low polyreactivity
QVQLVESGGGLVQAGGSLRLSCAASGIILDTYDMGWYRQAPGKERELVAVISWRGRTYYADSVKGRFTISRDNAKNTVYLQMNSLKPEDTAVYYCAAYSYRSVRWGWTSYDYWGQGTQVTVSS	high polyreactivity
QVQLVESGGGLVQAGGSLRLSCAASGIILKFYAMGWYRQAPGKERELVAAISRGGRTNYADSVKGRFTISRDNANNTVYLQMNSLKPEDTAVYYCAAKSYTYYRNYDYWGQGTQVTVSA	high polyreactivity
QVQLVESGGGLVQAGGSLRLSCAASGIILLFYVMGWYRQAPGKERELVASINGRSARTYYADSVKGRFTISRDNAKNTVYLQMNSLKPEDTAVYYCAAGYRYAGNGQIANTGGYYWGQGTQVTVSS	low polyreactivity
QVQLVESGGGLVQAGGSLRLSCAASGIILLRYTMGWYRQAPGKERELVAAISRSAGRTYYADSVKGRFTISRDNAKNTVYLQMNSLKPEDTAVYYCAAAFVSVRKRYGYWGHGTQVTVSS	high polyreactivity
